B1: D210S, A5H7H0 (parent)
chain: MQLQNFLSIVLLVVSGAIAGTVMDHDKIAKLPASGSPLETKFQPQLHIGNGCHSYPAVDAQGNWSGGLKPTGAPSAACKDTSKAQTYVRSATFQGKTALVYAWYMPKDEISTGIGHRHDWEGAVVFLNSDTQQIDGVAASAHGKWRKYPNPGGANIDDTHVKLQYSAEPVINSHALDLTDKGGDLPTLASWEGMGADARAAINERSHWGDANPPIADSLIGSSLSGAWMW

Variants of B1 are the subject of the data set. To be noted: Moniliophthora perniciosa; pH 7.2; Thermal; CD; sodium phosphate buffer 4mM; EDTA CaCl2 with ZnCl2 62.5 micro M 120 micro M 120 micro M; structure 3ST1; whole UniProt chain shown.

The term Tm denotes the temperature at the midpoint of the melting transition. MQLQNFLSIVLLVVSGAIAGTVMDHDKIAKLPASGSPLETKFQPQLHIGNGCHSYPAVDAQGNWSGGLKPTGAPSAACKDTSKAQTYVRSATFQGKTALVYAWYMPKDEISTGIGHRHDWEGAVVFLNSDTQQIDGVAASAHGKWRKYPNPGGANIDDTHVKLQYSAEPVINSHALDLTDKGGDLPTLASWEGMGADARAAINERSHWGSANPPIADSLIGSSLSGAWMW [D210S]: the melting temperature (Tm) worked out at 38.7 °C and the “change of melting temperature, mutant - wild type (higher = more stable)” value (“change of melting temperature, mutant” below) is -1.25 °C.

For the variant MQLQNFLSIVLLVVSGAIAGTVMDHDKIAKLPASGSPLETKFQPQLHIGNGCHSYPAVDAQGNWSGGLKPTGAPSAACKDTSKAQTYVRSATFQGKTALVYAWYMPKDEISTGIGHRHKWEGAVVFLNSDTQQIDGVAASAHGKWRKYPNPGGANIDDTHVKLQYSAEPVINSHALDLTDKGGDLPTLASWEGMGADARAAINERSHWGDANPPIADSLIGSSLSGAWMW [D119K], the midpoint of thermal melting (Tm) stood at 40.2 °C and the “change of melting temperature, mutant” value was 0.25 °C.

MQLQNFLSIVLLVVSGAIAGTVMDHDKIAKLPASGSPLETKFQPQLHIGNGCHSYPAVDAQGNWSGGLKPTGAPSAACKDTSKAQTYVRSATFQGKTALVYAWYMPKDEISTGIGARHDWEGAVVFLNSDTQQIDGVAASAHGKWRKYPNPGGANIDDTHVKLQYSAEPVINSHALDLTDKGGDLPTLASWEGMGADARAAINERSHWGDANPPIADSLIGSSLSGAWMW [H116A]: the midpoint of thermal melting (Tm) was found to be 40.4 °C and the “change of melting temperature, mutant” value amounted to 0.4 °C.

As for MQLQNFLSIVLLVVSGAIAGTVMDHDKIAKLPASGSPLETKFQPQLHIGNGCHSYPAVDAQGNWSGGLKPTGAPSAACKDTSKAQTYVRSATFQGKTALVYAWYMPKDEISTGIGSRHDWEGAVVFLNSDTQQIDGVAASAHGKWRKYPNPGGANIDDTHVKLQYSAEPVINSHALDLTDKGGDLPTLASWEGMGADARAAINERSHWGDANPPIADSLIGSSLSGAWMW [H116S], the Tm turned out to be 39.9 °C and the “change of melting temperature, mutant” value is -0.07 °C.

With MQLQNFLSIVLLVVSGAIAGTVMDHDKIAKLPASGSPLETKFQPQLHIGNGCHSYPAVDAQGNWSGGLKPTGAPSAACKDTSKAQTYVRSATFQGKTALVYAWYMPKDEISTGIGHRHDWEGAVVFLNSDTQQIDGVAASAHGKWRKYPNPGGANIDDTHVKLQYSAEPRINSHALDLTDKGGDLPTLASWEGMGADARAAINERSHWGDANPPIADSLIGSSLSGAWMW [V170R], the midpoint of thermal melting (Tm) is 37.7 °C and the “change of melting temperature, mutant” value was -2.26 °C.
